One molecule from patent US6911324B2, “Induction of beta cell differentiation in human cells” (The Regents of the University of California, priority 2001, dated 2005) can be followed below.

In the assay the test system is βlox5 cells. The experiment in a line: RT-PCR analysis of pancreatic hormone gene expression in βlox5 cells. The assay is classed as cell-based, human. The note with it: βlox5 cells expressing PDX-1; data not shown. The protocol:
FIG. 2: RT-PCR analysis of pancreatic hormone gene expression in βlox5. The conditions tested were βlox5 cells grown in monolayer culture, βlox5 cells infected with a retroviral vector expressing PDX-1, βlox5 cells grown as three-dimensional aggregates, and βlox5 cells treated with exendin-4. FIG. 2(A) insulin; FIG. 2(B) quantitative RT-PCR analysis of insulin gene expression; FIG. 2(C) other pancreatic hormones. Exendin-4 (Sigma) was used at a concentration of 10 nM. RT-PCR for insulin, somatostatin, glucagon, and IAPP have been described previously (Itkin-Ansari et al., submitted). Quantitative RT-PCR was done by interpolation from a standard curve constructed using a plasmid containing the human insulin cDNA.
PDX-1 also acted synergistically with cell-cell contact to further increase the level of somatostatin expression about 1,000-fold above the cells not expressing PDX-1, to a level similar to that found in normal human islets. To determine whether βlox5 could be induced to express pancreatic hormones, recombinant PDX-1 was expressed in βlox5 using a retroviral vector. […] Therefore, other factors were examined for their ability to induce hormone expression in βlox5 cells expressing PDX-1. […]

B1: betacellulin (protein, UniProt P35070 32-111, looked up)
Betacellulin: DGNSTRSPETNGLLCGDPEENCAATTTQSKRKGHFSRCPKQYKHYCIKGRCRFVVAEQTPSCVCDEGYIGARCERVDLFY
notes: factor reported to induce endocrine differentiation in cell lines and primary cells
Regarding B1, the “effect on hormone expression in βlox5 cells” value is on record as “no effect”.
